From the supplement of paper PMC10065799, “High-throughput profiling of sequence recognition by tyrosine kinases and SH2 domains using bacterial peptide display” (eLife, 2023)

Target: FGFR3 (UniProt P22607)
Test: phosphorylation enrichment, bacterial display (enrichment ratio); higher = better substrate or ligand; peptides without Tyr show the background
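Further: 11-residue human phosphosite peptides and single-mutation variants displayed on the E. coli surface, counted by deep sequencing, each peptide's frequency after selection divided by its frequency in the unselected input library; frequency after pTyr selection over input frequency; kinase dosed for 20-30% of maximal phosphorylation in three min.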

Sequence of FGFR3 (P22607 whole entry, looked up): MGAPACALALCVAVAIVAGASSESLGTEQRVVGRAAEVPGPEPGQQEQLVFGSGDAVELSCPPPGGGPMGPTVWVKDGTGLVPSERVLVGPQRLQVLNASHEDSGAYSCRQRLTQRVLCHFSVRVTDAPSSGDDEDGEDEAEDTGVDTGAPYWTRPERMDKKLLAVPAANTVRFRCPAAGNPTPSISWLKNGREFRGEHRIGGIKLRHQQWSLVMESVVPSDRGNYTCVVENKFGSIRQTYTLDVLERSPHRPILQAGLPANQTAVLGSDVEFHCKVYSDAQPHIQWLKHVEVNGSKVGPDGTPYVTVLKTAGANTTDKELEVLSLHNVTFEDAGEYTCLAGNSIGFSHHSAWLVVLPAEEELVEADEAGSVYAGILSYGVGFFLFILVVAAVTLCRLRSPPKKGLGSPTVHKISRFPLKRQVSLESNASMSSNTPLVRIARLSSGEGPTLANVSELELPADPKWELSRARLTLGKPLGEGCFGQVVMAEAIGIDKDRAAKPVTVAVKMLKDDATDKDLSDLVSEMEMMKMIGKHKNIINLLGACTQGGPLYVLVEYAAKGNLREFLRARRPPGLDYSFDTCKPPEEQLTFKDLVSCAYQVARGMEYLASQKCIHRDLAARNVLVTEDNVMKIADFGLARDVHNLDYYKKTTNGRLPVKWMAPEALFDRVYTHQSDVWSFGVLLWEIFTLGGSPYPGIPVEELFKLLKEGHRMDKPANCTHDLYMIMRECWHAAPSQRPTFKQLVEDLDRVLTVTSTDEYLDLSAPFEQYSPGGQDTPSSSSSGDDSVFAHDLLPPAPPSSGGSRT

Row | Sequence | phosphorylation enrichment
1 | SPFAVYRFFTF [RPGRIP1_Y826_YF] | 0.798
2 | CTTIHYYYMCN [TP53_Y234_N235Y] | 2.11
3 | TFTVSYLPDMS [FLNC_Y1602_YF] | 0.735
4 | SYSGEYGGGGG [ZG16_Y30] | 0.552
5 | GVIRHSVVCST [BTK_Y334_Y334S] | 0.51
6 | MENFIYESMRF [CYP19A1_Y361_YF] | 0.577
7 | PNRILYGDFQQ [MYH7_Y715_R719Q] | 0.475
8 | VFLGAYDCFLP [SLC22A5_Y486_R488C_YF] | 0.757
9 | SIKDKYVTALF [KCNH2_Y611_YF] | 0.488
10 | IRKKFYRAILE [CHD7_Y1218_Q1214R_YF] | 0.444
11 | ANQDDYISFRH [IMP4_Y226] | 0.967
12 | MGSYNYLGFAR [SPTLC2_Y178] | 1.04
13 | FFWDGYMPRQF [GSS_Y270_R267W_YF] | 0.735
14 | LTDRGYSFVTT [ACTA1_Y200_E197D] | 0.756
15 | EAEPYYRSLRD [NPHS1_Y1139] | 0.585
16 | VLSIDYFFPPQ [AR_Y552_P549S_YF] | 10.5
17 | VDLSKCITTIA [FAS_Y232_Y232C] | 0.641

Row | Sequence | phosphorylation enrichment
18 | TWSSSYRSDRL [CRYBB1_Y131] | 0.389
19 | RPSRWYQFPVA [ANOS1_Y259_R262P] | 1.38
20 | KLIETYFSKNY [PLP1_Y50] | 0.453
21 | AGKEEYSAMRD [HRAS_Y64_Q61K] | 0.582
22 | SVVVPYERPEV [TP53_Y220_P222R] | 0.627
23 | SEEVNYATLTF [CLEC12B_Y7_T6N] | 1.4
24 | ATDLAYYLVRK [ASL_Y375] | 4.21
25 | TLKDVYDDGKF [RPS6KA3_Y483_YF] | 0.66
26 | SKLTIYDARPS [MTM1_Y277] | 0.751
27 | FARNSYVAGQF [G6PD_Y107_YF] | 0.522
28 | GDEEDYFEIPG [EGFR_opt_F_2015] | 5.08
29 | PSGPMYRGAVP [ASAH1_Y43_T42M] | 0.573
30 | VQSASYLNDCL [MCM3AP_Y864_A867D] | 0.712
31 | YQLPYYNTVPS [BMPR1A_Y458_M460T] | 3.69
32 | PTTKTYFPQFD [HBA1_Y43_H46Q] | 0.636
33 | VGTKWYMAPEV [ACVRL1_Y375_R374W] | 0.747

Test system: Fer (mouse)
Test: as above

Row | Sequence | phosphorylation enrichment
34 | SPFAVYRFFTF [RPGRIP1_Y826_YF] | 0.496
35 | CTTIHYYYMCN [TP53_Y234_N235Y] | 0.574
36 | TFTVSYLPDMS [FLNC_Y1602_YF] | 0.436
37 | SYSGEYGGGGG [ZG16_Y30] | 0.444
38 | GVIRHSVVCST [BTK_Y334_Y334S] | 0.477
39 | MENFIYESMRF [CYP19A1_Y361_YF] | 14.1
40 | PNRILYGDFQQ [MYH7_Y715_R719Q] | 0.375
41 | VFLGAYDCFLP [SLC22A5_Y486_R488C_YF] | 4.68
42 | SIKDKYVTALF [KCNH2_Y611_YF] | 0.441
43 | IRKKFYRAILE [CHD7_Y1218_Q1214R_YF] | 0.42
44 | ANQDDYISFRH [IMP4_Y226] | 0.357
45 | MGSYNYLGFAR [SPTLC2_Y178] | 0.707
46 | FFWDGYMPRQF [GSS_Y270_R267W_YF] | 0.504
47 | LTDRGYSFVTT [ACTA1_Y200_E197D] | 0.653
48 | EAEPYYRSLRD [NPHS1_Y1139] | 0.428
49 | VLSIDYFFPPQ [AR_Y552_P549S_YF] | 0.516
50 | VDLSKCITTIA [FAS_Y232_Y232C] | 0.413

Row | Sequence | phosphorylation enrichment
51 | TWSSSYRSDRL [CRYBB1_Y131] | 0.477
52 | RPSRWYQFPVA [ANOS1_Y259_R262P] | 0.692
53 | KLIETYFSKNY [PLP1_Y50] | 0.285
54 | AGKEEYSAMRD [HRAS_Y64_Q61K] | 0.481
55 | SVVVPYERPEV [TP53_Y220_P222R] | 0.51
56 | SEEVNYATLTF [CLEC12B_Y7_T6N] | 1.45
57 | ATDLAYYLVRK [ASL_Y375] | 0.786
58 | TLKDVYDDGKF [RPS6KA3_Y483_YF] | 0.488
59 | SKLTIYDARPS [MTM1_Y277] | 0.484
60 | FARNSYVAGQF [G6PD_Y107_YF] | 0.36
61 | GDEEDYFEIPG [EGFR_opt_F_2015] | 0.5
62 | PSGPMYRGAVP [ASAH1_Y43_T42M] | 0.347
63 | VQSASYLNDCL [MCM3AP_Y864_A867D] | 0.487
64 | YQLPYYNTVPS [BMPR1A_Y458_M460T] | 2.1
65 | PTTKTYFPQFD [HBA1_Y43_H46Q] | 0.499
66 | VGTKWYMAPEV [ACVRL1_Y375_R374W] | 0.374

Target: Fes (UniProt P07332)
Test: as above

Sequence of Fes (P07332 whole entry, looked up): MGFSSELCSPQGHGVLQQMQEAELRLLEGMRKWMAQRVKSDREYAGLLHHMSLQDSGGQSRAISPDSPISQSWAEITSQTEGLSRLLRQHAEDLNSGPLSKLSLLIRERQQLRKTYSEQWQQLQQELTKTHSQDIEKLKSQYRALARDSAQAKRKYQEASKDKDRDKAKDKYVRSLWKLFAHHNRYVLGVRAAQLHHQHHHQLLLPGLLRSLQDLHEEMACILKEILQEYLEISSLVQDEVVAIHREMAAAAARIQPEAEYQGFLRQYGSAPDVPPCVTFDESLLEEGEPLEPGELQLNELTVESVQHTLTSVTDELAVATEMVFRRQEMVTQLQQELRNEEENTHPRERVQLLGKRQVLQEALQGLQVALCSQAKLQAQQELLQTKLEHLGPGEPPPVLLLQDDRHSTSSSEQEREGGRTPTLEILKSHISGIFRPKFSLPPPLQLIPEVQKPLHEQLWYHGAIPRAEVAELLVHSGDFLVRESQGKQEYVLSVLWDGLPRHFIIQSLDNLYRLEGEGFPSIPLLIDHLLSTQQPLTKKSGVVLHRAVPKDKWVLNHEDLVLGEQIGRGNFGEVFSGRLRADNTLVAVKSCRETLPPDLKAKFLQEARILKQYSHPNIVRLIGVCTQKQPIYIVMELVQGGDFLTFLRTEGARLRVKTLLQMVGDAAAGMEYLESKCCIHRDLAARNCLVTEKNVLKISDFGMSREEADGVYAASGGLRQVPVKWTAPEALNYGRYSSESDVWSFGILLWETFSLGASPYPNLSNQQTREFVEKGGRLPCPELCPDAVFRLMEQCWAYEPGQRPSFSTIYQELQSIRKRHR

Row | Sequence | phosphorylation enrichment
67 | SPFAVYRFFTF [RPGRIP1_Y826_YF] | 1.33
68 | CTTIHYYYMCN [TP53_Y234_N235Y] | 1.08
69 | TFTVSYLPDMS [FLNC_Y1602_YF] | 1.28
70 | SYSGEYGGGGG [ZG16_Y30] | 0.685
71 | GVIRHSVVCST [BTK_Y334_Y334S] | 0.82
72 | MENFIYESMRF [CYP19A1_Y361_YF] | 5.1
73 | PNRILYGDFQQ [MYH7_Y715_R719Q] | 0.798
74 | VFLGAYDCFLP [SLC22A5_Y486_R488C_YF] | 1.28
75 | SIKDKYVTALF [KCNH2_Y611_YF] | 0.846
76 | IRKKFYRAILE [CHD7_Y1218_Q1214R_YF] | 0.62
77 | ANQDDYISFRH [IMP4_Y226] | 0.841
78 | MGSYNYLGFAR [SPTLC2_Y178] | 1.05
79 | FFWDGYMPRQF [GSS_Y270_R267W_YF] | 1.19
80 | LTDRGYSFVTT [ACTA1_Y200_E197D] | 1.23
81 | EAEPYYRSLRD [NPHS1_Y1139] | 0.911
82 | VLSIDYFFPPQ [AR_Y552_P549S_YF] | 1.12
83 | VDLSKCITTIA [FAS_Y232_Y232C] | 1.01

Row | Sequence | phosphorylation enrichment
84 | TWSSSYRSDRL [CRYBB1_Y131] | 1.07
85 | RPSRWYQFPVA [ANOS1_Y259_R262P] | 0.889
86 | KLIETYFSKNY [PLP1_Y50] | 0.732
87 | AGKEEYSAMRD [HRAS_Y64_Q61K] | 0.871
88 | SVVVPYERPEV [TP53_Y220_P222R] | 0.988
89 | SEEVNYATLTF [CLEC12B_Y7_T6N] | 1.37
90 | ATDLAYYLVRK [ASL_Y375] | 1.41
91 | TLKDVYDDGKF [RPS6KA3_Y483_YF] | 1.04
92 | SKLTIYDARPS [MTM1_Y277] | 1.17
93 | FARNSYVAGQF [G6PD_Y107_YF] | 0.712
94 | GDEEDYFEIPG [EGFR_opt_F_2015] | 1.22
95 | PSGPMYRGAVP [ASAH1_Y43_T42M] | 1.21
96 | VQSASYLNDCL [MCM3AP_Y864_A867D] | 0.97
97 | YQLPYYNTVPS [BMPR1A_Y458_M460T] | 0.684
98 | PTTKTYFPQFD [HBA1_Y43_H46Q] | 0.922
99 | VGTKWYMAPEV [ACVRL1_Y375_R374W] | 0.764

Target: Fyn (UniProt P06241)
Test: as above

Sequence of Fyn (P06241 whole entry, looked up): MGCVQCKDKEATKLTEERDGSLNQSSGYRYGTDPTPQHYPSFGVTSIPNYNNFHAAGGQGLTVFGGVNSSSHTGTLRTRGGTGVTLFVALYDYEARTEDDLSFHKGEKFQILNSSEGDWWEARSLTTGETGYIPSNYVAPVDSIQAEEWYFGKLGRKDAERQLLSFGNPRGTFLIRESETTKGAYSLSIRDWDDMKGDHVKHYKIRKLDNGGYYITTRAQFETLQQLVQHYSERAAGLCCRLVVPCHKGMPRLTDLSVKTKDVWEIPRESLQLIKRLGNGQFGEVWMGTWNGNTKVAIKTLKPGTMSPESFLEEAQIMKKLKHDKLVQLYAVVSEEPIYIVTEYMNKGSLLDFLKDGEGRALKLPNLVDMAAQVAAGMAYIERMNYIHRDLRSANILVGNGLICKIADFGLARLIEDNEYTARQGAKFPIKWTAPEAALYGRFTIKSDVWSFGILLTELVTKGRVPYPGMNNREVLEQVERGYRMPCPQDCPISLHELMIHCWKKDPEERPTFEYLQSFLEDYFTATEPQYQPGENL

Row | Sequence | phosphorylation enrichment
100 | SPFAVYRFFTF [RPGRIP1_Y826_YF] | 0.68
101 | CTTIHYYYMCN [TP53_Y234_N235Y] | 1.41
102 | TFTVSYLPDMS [FLNC_Y1602_YF] | 0.495
103 | SYSGEYGGGGG [ZG16_Y30] | 0.485
104 | GVIRHSVVCST [BTK_Y334_Y334S] | 0.42
105 | MENFIYESMRF [CYP19A1_Y361_YF] | 8.61
106 | PNRILYGDFQQ [MYH7_Y715_R719Q] | 4.31
107 | VFLGAYDCFLP [SLC22A5_Y486_R488C_YF] | 5.7
108 | SIKDKYVTALF [KCNH2_Y611_YF] | 0.465
109 | IRKKFYRAILE [CHD7_Y1218_Q1214R_YF] | 0.57
110 | ANQDDYISFRH [IMP4_Y226] | 0.899
111 | MGSYNYLGFAR [SPTLC2_Y178] | 0.758
112 | FFWDGYMPRQF [GSS_Y270_R267W_YF] | 0.349
113 | LTDRGYSFVTT [ACTA1_Y200_E197D] | 0.8
114 | EAEPYYRSLRD [NPHS1_Y1139] | 0.479
115 | VLSIDYFFPPQ [AR_Y552_P549S_YF] | 0.497
116 | VDLSKCITTIA [FAS_Y232_Y232C] | 0.402

Row | Sequence | phosphorylation enrichment
117 | TWSSSYRSDRL [CRYBB1_Y131] | 0.456
118 | RPSRWYQFPVA [ANOS1_Y259_R262P] | 0.496
119 | KLIETYFSKNY [PLP1_Y50] | 0.355
120 | AGKEEYSAMRD [HRAS_Y64_Q61K] | 0.432
121 | SVVVPYERPEV [TP53_Y220_P222R] | 0.475
122 | SEEVNYATLTF [CLEC12B_Y7_T6N] | 1.33
123 | ATDLAYYLVRK [ASL_Y375] | 0.85
124 | TLKDVYDDGKF [RPS6KA3_Y483_YF] | 0.548
125 | SKLTIYDARPS [MTM1_Y277] | 2.4
126 | FARNSYVAGQF [G6PD_Y107_YF] | 0.489
127 | GDEEDYFEIPG [EGFR_opt_F_2015] | 0.504
128 | PSGPMYRGAVP [ASAH1_Y43_T42M] | 0.467
129 | VQSASYLNDCL [MCM3AP_Y864_A867D] | 0.448
130 | YQLPYYNTVPS [BMPR1A_Y458_M460T] | 0.92
131 | PTTKTYFPQFD [HBA1_Y43_H46Q] | 0.617
132 | VGTKWYMAPEV [ACVRL1_Y375_R374W] | 0.364
